From patent US20260000740A1, “USE OF A L-ASPARAGINASE IN COMBINATION WITH A FERROPTOSIS INDUCER FOR THE TREATMENT OF EXTRANODAL NATURAL KILLER/T-CELL LYMPHOMA” (Institut National de la Santé et de la Recherche Médicale, priority 2022, published 2026)

B1: Kidrolase: L-Asparaginase from E. Coli (Kidrolase®) (protein, UniProt P00805 23-348, looked up)
L-asparaginase 2: LPNITILATGGTIAGGGDSATKSNYTVGKVGVENLVNAVPQLKDIANVKGEQVVNIGSQDMNDNVWLTLAKKINTDCDKTDGFVITHGTDTMEETAYFLDLTVKCDKPVVMVGAMRPSTSMSADGPFNLYNAVVTAADKASANRGVLVVMNDTVLDGRDVTKTNTTDVATFKSVNYGPLGYIHNGKIDYQRTPARKHTSDTPFDVSKLNELPKVGIVYNYANASDLPAKALVDAGYDGIVSAGVGNGNLYKSVFDTLATAAKTGTAVVRSSRVPTGATTQDAEVDDAKYGFVASGTLNPQKARVLLQLALTQTKDPQQIQQIFNQY
B2: Erwinase: L-ASP protein from Erwinia chrysanthemi, named crisantaspase, marketed as Erwinase®; SEQ ID NO:1 (protein, listed as Erwinia chrysanthemi)
chain: ADKLPNIVILATGGTIAGSAATGTQTTGYKAGALGVDTLINAVPEVKKLANVKGEQFSNMASENMTGDVVLKLSQRVNELLARDDVDGVVITHGTDTVEESAYFLHLTVKSDKPVVFVAAMRPATAISADGPMNLLEAVRVAGDKQSRGRGVMVVLNDRIGSARYITKTNASTLDTFKANEEGYLGVIIGNRIYYQNRIDKLHTTRSVFDVRGLTSLPKVDILYGYQDDPEYLYDAAIQHGVKGIVYAGMGAGSVSVRGIAGMRKAMEKGVVVIRSTRTGNGIVPPDEELPGLVSDSLNPAHARILLMLALTRTSDPKVIQEYFHTY

Legend:
KHYG-1 cells = assay: Cell viability measurement by flow cytometry (Annexin V/PI); type: cell-based, human; details: for Effect of Gln addition on cell death: Gln addition combined to treatment alone; for Asparaginase sensitivity: KHYG1 cell line
Protocol: KHYG-1 cells were seeded into flat wells of a 96-wells plate (Falcon) at a final concentration of 0.1 10^6 cells/well. APR-246 was dispensed at a final concentration of 20 uM and Asparaginases were dispensed at a final concentration range from 0.1 to 1 UI/mL. Plates were incubated at 37° C. and 5% CO2 for 72 hours in a humidity chamber. Cell viability was determined by flow cytometry using Annexin V (APC Annexin V, BD Biosciences, ref: 550474, 1:100 dilution)/Propidium Iodide (PI) (Propidium Iodide, Invitrogen, ref: BMS500FI-100, 1:20 dilution) staining. After 20 min incubation at 4° C. away from light, flow cytometry was performed using BD Fortessa cytometer (with HTS device for plate reading).
Flow cytometry data were analysed using FlowJo software and GraphPad-Prism 9. R software and Rstudio interface (version 1.4.1106) were used for synergy score calculation. Calculations were based on the Loewe model.

GSH = assay: Quantification of GSH levels and GSH/GSSG ratio in tumor cells (metabolomics, specific quantification); type: cell-based, human; details: for GSH / GSH/GSSG ratio: metabolomic analysis in tumor cells after one day treatment, single agent
From the text: (§1) Then, we wanted to uncover the metabolic changes induced by ASNase resistance.

lipid peroxidation = assay: Lipid peroxidation in KHYG1 cell line; type: cell-based, human; details: added to RSL3 combined with Erwinase; FIG. 2B
MEC-04 cell line = assay: Asparaginase sensitivity of cell lines; type: cell-based, human
YT1 cell line = assay: Asparaginase sensitivity of cell lines; type: cell-based, human
[1] = test system: NALM6 human acute lymphoblastic leukemia cell line; assay: Asparaginase sensitivity of cell lines; type: cell-based
mitochondrial ROS = assay: Quantification of mitochondrial ROS levels in tumor cells; type: cell-based, human; details: Erwinase compared to Kidrolase; data not shown
From the text: as §1

extracellular Gln = assay: Extracellular glutamine levels in supernatant of cultured cells; type: cell-based, human; details: cells cultured with each drug; compared to Kidrolase; data not shown
From the text: Glutamine (Gln) intake from extracellular compartment is converted in Glutamate (Glu) by glutaminase (GLS) and participates to cancer cells protection from oxidative stress through solute carrier family 7-member 11 (SLC7A11) expression. SLC7A11 encodes the cystine/Glu antiporter xCT which imports cysteine into the cell in exchange for Glu […].

| Molecule | Effect of co-treatment with ferrostatin-1 on the decrease in cell viability (KHYG-1 cells; RSL3+Erwinase-treated cells, data not shown) | Effect of ferrostatin-1 addition on GSH decrease (GSH; added to RSL3 combined with Erwinase, FIG. 2B) | Effect of ferrostatin-1 addition on lipid peroxidation accumulation (lipid peroxidation) | Effect of Gln addition on cell death (KHYG-1 cells; data not shown) | Asparaginase sensitivity (MEC-04 cell line) | Asparaginase sensitivity (YT1 cell line) | Asparaginase sensitivity [1] | Asparaginase sensitivity (KHYG-1 cells) | GSH (GSH; data not shown) | GSH/GSSG ratio (GSH; data not shown) | GSH levels (GSH; Erwinase compared to Kidrolase, data not shown) | Effect of extracellular Gln addition on intracellular GSH levels (GSH; upon Erwinase treatment, data not shown) | ROS levels (mitochondrial ROS) | Gln extracellular levels in the supernatant (extracellular Gln) |
| --- | --- | --- | --- | --- | --- | --- | --- | --- | --- | --- | --- | --- | --- | --- |
| CCOC(=O)c1ccc(NC2CCCCC2)c(N)c1 [ferrostatin-1, reference compound] | abrogated | reversed | reversed | – | – | – | – | – | – | – | – | – | – | – |
| COCC1(CO)C(=O)C2CCN1CC2 (stereo not shown) [APR-246, 2-(hydroxymethyl)-2-(methoxymethyl)-1-azabicyclo[2.2.2]octan-3-one, reference compound] | – | – | – | no effect | – | – | – | – | – | – | – | – | – | – |
| B1 | – | – | – | no effect | high sensitivity | high sensitivity | resistant | resistant | decrease | decrease | – | – | – | – |
| B2 | – | – | – | partially prevents cell death | high sensitivity | high sensitivity | resistant | resistant | more pronounced | more pronounced | GSH decrease | significantly rescues | higher ROS levels | deeper extracellular Gln depletion |
